In paper PMC7549792:

Biological target: Human serum albumin domain I (human)
Experiment: SEC; analytical Superdex 75 10/300 calibrated with known proteins; 100 uL of purified DomI at 90 ug/mL; Tris 50 mM, pH 8, 100 mM NaCl; 0.8 mL/min; dimer non-covalent by reducing and non-reducing SDS-PAGE

**Q.** “Human serum albumin domain I (domain or fragment)” was tested. Which stoichiometry N did it give?
**A.** Its stoichiometry N is 2.
